Patent US20210208163A1 (RUSH UNIVERSITY MEDICAL CENTER, published 2021)

B2: human ICOSL (inducible co-stimulator ligand), full-length, isoform 1, N-terminal His-tag (ligand, not shown: small tags and cut ends)
chain: DTQEKEVRAMVGSDVELSCACPEGSRFDLNDVYVYWQTSESKTVVTYHIPQNSSLENVDSRYRNRALMSPAGMLRGDFSLRLFNVTPQDEQKFHCLVLSQSLGFQEVLSVEVTLHVAANFSVPVVSAPHSPSQDELTFTCTSINGYPRPNVYWINKTDNSLLDQALQNDTVFLNMRGLYDVVSVLRIARTPSVNIGCCIENVLLQQNLTVGSQTGNDIGERDKITENPVSTGEKNAAT
notes: The reagent list also names a bought human ICOSL-His Tag (Thermo Fisher 11559H08H50); also called hICOSL; B7h

Legend:
[1] = biological target: T1, recombinant human integrin αvβ3 (R&D Systems, 3050-AV) (human, UniProt P06756 31-992; P05106 27-718); test: SPR, Mn2+ (active integrin)
T1 construct: Analyte in SPR; also called αvβ3 integrin
T1 sequence (P06756 31-992 limits assumed, chain 1 of 2): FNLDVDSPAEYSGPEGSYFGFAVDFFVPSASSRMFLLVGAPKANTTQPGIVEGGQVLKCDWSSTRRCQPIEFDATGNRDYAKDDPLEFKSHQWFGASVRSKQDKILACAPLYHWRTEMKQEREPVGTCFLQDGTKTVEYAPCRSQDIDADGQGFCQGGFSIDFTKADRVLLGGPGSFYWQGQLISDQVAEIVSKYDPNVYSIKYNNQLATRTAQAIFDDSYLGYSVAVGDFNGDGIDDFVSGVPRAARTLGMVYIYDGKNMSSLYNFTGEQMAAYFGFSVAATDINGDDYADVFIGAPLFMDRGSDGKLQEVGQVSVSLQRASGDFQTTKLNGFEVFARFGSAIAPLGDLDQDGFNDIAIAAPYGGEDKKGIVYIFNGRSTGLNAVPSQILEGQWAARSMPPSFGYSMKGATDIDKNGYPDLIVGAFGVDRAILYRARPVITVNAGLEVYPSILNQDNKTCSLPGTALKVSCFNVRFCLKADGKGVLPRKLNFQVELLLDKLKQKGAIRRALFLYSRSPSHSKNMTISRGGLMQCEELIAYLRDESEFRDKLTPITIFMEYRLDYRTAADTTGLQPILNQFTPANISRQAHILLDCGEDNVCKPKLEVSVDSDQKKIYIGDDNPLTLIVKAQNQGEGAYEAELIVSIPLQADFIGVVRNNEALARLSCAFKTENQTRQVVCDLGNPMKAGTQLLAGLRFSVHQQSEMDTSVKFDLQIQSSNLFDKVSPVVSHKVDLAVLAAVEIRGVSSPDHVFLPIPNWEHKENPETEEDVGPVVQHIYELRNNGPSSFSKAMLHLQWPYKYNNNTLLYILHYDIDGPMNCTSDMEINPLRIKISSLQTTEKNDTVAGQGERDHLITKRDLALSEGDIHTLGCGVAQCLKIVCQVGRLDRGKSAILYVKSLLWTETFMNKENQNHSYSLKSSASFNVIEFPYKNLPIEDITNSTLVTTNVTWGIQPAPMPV
T1 sequence (P05106 27-718 limits assumed, chain 2 of 2): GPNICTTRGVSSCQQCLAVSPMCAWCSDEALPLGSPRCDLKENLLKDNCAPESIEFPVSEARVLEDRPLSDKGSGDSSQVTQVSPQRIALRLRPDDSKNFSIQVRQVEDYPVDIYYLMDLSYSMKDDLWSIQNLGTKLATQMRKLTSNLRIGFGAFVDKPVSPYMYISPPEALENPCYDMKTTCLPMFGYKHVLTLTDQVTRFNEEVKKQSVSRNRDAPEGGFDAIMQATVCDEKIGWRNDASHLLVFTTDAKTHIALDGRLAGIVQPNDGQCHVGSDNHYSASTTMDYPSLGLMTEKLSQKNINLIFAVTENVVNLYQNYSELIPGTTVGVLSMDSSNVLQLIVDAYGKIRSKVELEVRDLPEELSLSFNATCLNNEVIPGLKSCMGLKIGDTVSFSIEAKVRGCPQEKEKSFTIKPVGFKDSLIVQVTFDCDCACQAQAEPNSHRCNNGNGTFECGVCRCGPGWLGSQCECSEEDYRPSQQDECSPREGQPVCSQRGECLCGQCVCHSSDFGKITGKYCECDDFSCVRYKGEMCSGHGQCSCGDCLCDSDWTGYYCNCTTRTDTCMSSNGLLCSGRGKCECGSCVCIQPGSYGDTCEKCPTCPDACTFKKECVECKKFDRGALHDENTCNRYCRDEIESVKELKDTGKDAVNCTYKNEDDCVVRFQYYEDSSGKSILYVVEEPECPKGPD

[2] = biological target: T1, recombinant human integrin αvβ3 (R&D …); test: SPR (Biacore T200), ICOSL immobilised on CM5, αvβ3 as analyte, Mn2+ (active integrin), kinetic 1:1 Langmuir fit (kd/ka)
[3] = biological target: T1, recombinant human integrin αvβ3 (R&D …); test: SPR, ICOSL immobilised, inactive αvβ3 (EDTA, no Mn2+), steady-state affinity fit
[4] = biological target: T2, recombinant human integrin αIIbβ3 (R&D Systems, 7148-A2) (human, UniProt P08514 32-993; P05106 27-718); test: SPR, ICOSL immobilised, integrin as analyte
T2 construct: also called αllbβ3
T2 sequence (P08514 32-993 limits assumed, chain 1 of 2): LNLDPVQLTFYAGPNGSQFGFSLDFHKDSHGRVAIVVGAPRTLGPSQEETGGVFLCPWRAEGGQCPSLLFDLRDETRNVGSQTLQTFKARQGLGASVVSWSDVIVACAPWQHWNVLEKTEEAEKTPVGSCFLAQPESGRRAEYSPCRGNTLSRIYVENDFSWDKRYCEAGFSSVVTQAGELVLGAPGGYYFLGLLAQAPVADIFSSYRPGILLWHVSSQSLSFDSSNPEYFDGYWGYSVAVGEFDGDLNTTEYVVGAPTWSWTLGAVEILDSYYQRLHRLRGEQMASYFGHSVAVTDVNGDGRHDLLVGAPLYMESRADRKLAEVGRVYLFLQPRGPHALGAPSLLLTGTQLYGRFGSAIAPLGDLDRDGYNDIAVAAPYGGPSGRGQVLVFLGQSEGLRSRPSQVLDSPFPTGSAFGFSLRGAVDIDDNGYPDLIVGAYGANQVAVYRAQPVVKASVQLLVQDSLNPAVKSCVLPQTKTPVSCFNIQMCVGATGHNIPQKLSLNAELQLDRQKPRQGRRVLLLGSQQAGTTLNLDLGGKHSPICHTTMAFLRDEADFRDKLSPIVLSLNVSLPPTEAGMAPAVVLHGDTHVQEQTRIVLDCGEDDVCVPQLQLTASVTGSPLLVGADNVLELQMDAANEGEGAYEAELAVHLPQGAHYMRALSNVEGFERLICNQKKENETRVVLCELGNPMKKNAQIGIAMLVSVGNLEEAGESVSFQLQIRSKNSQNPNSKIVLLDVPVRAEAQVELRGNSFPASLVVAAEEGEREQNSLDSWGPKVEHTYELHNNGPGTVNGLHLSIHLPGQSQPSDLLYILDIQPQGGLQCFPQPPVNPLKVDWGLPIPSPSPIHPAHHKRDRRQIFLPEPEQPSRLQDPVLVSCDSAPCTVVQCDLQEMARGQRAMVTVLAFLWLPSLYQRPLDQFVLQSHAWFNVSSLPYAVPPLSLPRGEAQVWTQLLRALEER
T2 sequence (P05106 27-718 limits assumed, chain 2 of 2): as the sequence (P05106 27-718 limits assumed, chain 2 of 2) above

[5] = biological target: recombinant human integrin αvβ5 (R&D Systems, 2528-AV) (human, UniProt P06756 31-992; P18084 24-719); test: SPR, ICOSL immobilised, integrin as analyte
recombinant human integrin αvβ5 (R&D Systems, 2528-AV), sequence (P06756 31-992 limits assumed, chain 1 of 2): as the sequence (P06756 31-992 limits assumed, chain 1 of 2) above
recombinant human integrin αvβ5 (R&D Systems, 2528-AV), sequence (P18084 24-719 limits assumed, chain 2 of 2): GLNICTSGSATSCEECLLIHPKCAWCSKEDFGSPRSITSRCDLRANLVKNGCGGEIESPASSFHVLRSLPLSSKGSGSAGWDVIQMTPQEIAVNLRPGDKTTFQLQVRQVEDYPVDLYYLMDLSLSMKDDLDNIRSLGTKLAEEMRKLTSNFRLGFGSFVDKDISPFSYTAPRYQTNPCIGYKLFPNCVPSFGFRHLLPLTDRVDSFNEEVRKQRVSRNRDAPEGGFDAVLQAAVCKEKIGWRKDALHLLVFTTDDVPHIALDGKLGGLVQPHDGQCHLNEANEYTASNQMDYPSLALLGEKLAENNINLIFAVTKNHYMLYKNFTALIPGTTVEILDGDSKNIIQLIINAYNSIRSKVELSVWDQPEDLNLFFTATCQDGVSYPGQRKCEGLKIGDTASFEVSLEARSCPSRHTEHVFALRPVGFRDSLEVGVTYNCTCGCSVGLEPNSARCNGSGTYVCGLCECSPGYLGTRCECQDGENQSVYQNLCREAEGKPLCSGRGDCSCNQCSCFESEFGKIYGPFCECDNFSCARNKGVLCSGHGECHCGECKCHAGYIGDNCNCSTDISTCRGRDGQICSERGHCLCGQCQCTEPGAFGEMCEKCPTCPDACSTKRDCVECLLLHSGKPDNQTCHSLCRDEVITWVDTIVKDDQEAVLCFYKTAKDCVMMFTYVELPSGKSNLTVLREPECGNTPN

[6] = biological target: T3, recombinant mouse integrin αvβ3 (R&D Systems, 7889-AV-050) (mouse, UniProt P43406 31-988; O54890 26-717); test: SPR (Biacore T200), ICOSL immobilised on CM5, αvβ3 as analyte, Mn2+ (active integrin), kinetic 1:1 Langmuir fit (kd/ka)
T3 construct: also called mouse αvβ3 integrin
T3 sequence (P43406 31-988 limits assumed, chain 1 of 2): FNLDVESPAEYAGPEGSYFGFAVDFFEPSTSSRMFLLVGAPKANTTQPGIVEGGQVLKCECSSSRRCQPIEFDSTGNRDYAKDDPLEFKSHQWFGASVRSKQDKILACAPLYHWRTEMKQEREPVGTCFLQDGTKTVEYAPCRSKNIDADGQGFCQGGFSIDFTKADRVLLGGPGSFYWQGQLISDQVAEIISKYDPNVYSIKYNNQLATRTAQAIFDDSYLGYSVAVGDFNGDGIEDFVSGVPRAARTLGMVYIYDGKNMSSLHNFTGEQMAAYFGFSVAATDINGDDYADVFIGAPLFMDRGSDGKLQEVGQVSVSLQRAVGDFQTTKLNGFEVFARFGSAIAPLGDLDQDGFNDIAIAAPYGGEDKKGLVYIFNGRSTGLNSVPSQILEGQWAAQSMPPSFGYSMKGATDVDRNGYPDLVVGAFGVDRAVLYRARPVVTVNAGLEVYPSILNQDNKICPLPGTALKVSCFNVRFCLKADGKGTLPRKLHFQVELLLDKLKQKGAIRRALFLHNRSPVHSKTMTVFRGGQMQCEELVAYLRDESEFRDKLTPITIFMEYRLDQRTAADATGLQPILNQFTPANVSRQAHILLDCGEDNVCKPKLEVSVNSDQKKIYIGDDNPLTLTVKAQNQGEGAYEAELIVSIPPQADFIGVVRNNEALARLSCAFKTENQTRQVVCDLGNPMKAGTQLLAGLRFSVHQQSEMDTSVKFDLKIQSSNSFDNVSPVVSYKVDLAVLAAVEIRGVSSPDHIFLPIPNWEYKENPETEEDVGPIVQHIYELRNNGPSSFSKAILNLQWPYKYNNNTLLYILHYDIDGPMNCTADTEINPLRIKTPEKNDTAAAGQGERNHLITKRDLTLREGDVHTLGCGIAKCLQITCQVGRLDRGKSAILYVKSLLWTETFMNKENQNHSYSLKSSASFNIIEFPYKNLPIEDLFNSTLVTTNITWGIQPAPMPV
T3 sequence (O54890 26-717 limits assumed, chain 2 of 2): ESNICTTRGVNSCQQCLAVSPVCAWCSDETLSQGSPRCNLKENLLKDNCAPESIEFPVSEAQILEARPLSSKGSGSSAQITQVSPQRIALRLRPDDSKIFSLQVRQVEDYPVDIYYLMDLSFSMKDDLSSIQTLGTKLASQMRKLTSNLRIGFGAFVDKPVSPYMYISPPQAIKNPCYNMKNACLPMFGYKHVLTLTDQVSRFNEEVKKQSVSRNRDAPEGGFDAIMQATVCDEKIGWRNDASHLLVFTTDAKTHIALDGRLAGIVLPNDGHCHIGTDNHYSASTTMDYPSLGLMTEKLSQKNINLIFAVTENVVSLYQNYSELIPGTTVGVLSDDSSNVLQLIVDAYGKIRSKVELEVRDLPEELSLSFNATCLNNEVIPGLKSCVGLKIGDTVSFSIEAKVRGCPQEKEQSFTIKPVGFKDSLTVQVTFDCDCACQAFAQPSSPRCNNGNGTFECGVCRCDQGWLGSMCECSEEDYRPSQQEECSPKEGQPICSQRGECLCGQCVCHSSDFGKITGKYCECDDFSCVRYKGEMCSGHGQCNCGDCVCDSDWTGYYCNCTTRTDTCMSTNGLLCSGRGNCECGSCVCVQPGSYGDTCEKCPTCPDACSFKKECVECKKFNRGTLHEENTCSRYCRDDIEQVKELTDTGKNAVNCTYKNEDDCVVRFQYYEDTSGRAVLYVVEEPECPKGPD

[7] = biological target: T3, recombinant mouse integrin αvβ3 (R&D …); test: SPR, ICOSL immobilised, αvβ3 as analyte, 0.2 mM Ca2+ and 0.1 mM Mg2+, kinetic 1:1 fit
[8] = biological target: T3, recombinant mouse integrin αvβ3 (R&D …); test: SPR, ICOSL immobilised, αvβ3 as analyte, 2 mM Ca2+ and 1 mM Mg2+ (inactive integrin)
[9] = biological target: T3, recombinant mouse integrin αvβ3 (R&D …); test: SPR, ICOSL immobilised, inactive αvβ3 (EDTA, no Mn2+), steady-state affinity fit
[10] = biological target: B2; test: SPR

B1: recombinant human B7.1 (R&D Systems, 140-B1) (ligand, UniProt P33681 35-242, looked up)
chain: VIHVTKEVKEVATLSCGHNVSVEELAQTRIYWQKEKKMVLTMMSGDMNIWPEYKNRTIFDITNNLSIVILALRPSDEGTYECVVLKYEKDAFKREHLAEVTLSVKADFPTPSISDFEIPTSNIRRIICSTSGGFPEPHLSWLENGEELNAINTTVSQDPETELYAVSSKLDFNMTTNHSFMCLIKYGHLRVNQTFNWNTTKQEHFPDN
notes: also called RGD-lacking B7.1
Does B1 bind [1]?
Result: no binding

What does the source list for B2?
Kd [2]: 0.0162 µM; Kd [3]: 0.412 µM; binding result [4]: no binding; binding result [5]: no binding

B3: mouse ICOSL, wild type (RGD), full-length, N-terminal His-tag (ligand, not shown: small tags and cut ends)
chain: ETEVGAMVGSNVVLSCIDPHRRHFNLSGLYVYWQIENPEVSVTYYLPYKSPGINVDSSYKNRGHLSLDSMKQGNFSLYLKNVTPQDTQEFTCRVFMNTATELVKILEEVVRLRVAANFSTPVISTSDSSNPGQERTYTCMSKNGYPEPNLYWINTTDNSLIDTALQNNTVYLNKLGLYDVISTLRLPWTSRGDVLCCVENVALHQNITSISQAESFTGNNTKNPQETHNNE
notes: also called mICOSL; WT mICOSL
For B3, which Kd [6] is on record?
The Kd was 0.0242 µM.

And the Kd [7]?
The Kd was 0.0213 µM.

What about the Kd [8] of the same binder?
Its Kd is 0.4 µM.

What about the Kd [9] of the same binder?
Its Kd is at least 2000 µM.

B4: recombinant human ICOS (R&D Systems, 169-CS) (receptor, UniProt Q9Y6W8 21-141, looked up)
chain: EINGSANYEMFIFHNGGVQILCKYPDIVQQFKMQLLKGGQILCDLTKTKGSGNTVSIKSLKFCHSQLSNNSVSFFLYNLDHSHANYYFCNLSIFDPPPFKVTLTGGYLHIYESQLCCQLKF
Which Kd [10] does the source give for B4 here?
Its Kd is 0.005 µM.
